Assay results from US20120253008A1 (Ablynx, published 2012).

B1: 12A2 sv1-AAA-12A2 sv1-9GS-59C2 (VHH)
chain: DVQLVESGGGLVQPGGSLRLSCAASGRTFSYNPMGWFRQAPGKGRELVAAISRTGGSTYYPESVEGRFTISRDNAKRTVYLQMNSLRAEDTAVYYCAAAGVRAEQGRVRTLPSEYTFWGQGTQVTVSSAAAEVQLVESGGGLVQPGGSLRLSCAASGRTFSYNPMGWFRQAPGKGRELVAAISRTGGSTYYPESVEGRFTISRDNAKRTVYLQMNSLRAEDTAVYYCAAAGVRAEQGRVRTLPSEYTFWGQGTQVTVSSGGGGSGGGSRDWDFDVFGGGTPVGG
notes: bivalent anti-vWF Nanobody with one C-terminal 59C2 peptide; also called vWF-0055; vWF 0055
B2: peptide of SEQ ID NO: 143 (peptide)
peptide: AAARYWDYDVFGGGTPVGGAAA
notes: 56E4 with one additional N-terminal and three C-terminal alanines; used for the co-crystal with HSA; also called peptide based on EXP56E4

How the values were obtained:
[1] = molecular target: T1, cynomolgus monkey serum albumin (cynomolgus monkey, UniProt A2V9Z4 25-608); assay: SPR, Biacore 3000, cynoSA on CM5 chip, pH5 against pH7
T1 construct: amine-coupled to a CM5 chip; also called CSA; cynoSA
T1 sequence (A2V9Z4 25-608 limits assumed): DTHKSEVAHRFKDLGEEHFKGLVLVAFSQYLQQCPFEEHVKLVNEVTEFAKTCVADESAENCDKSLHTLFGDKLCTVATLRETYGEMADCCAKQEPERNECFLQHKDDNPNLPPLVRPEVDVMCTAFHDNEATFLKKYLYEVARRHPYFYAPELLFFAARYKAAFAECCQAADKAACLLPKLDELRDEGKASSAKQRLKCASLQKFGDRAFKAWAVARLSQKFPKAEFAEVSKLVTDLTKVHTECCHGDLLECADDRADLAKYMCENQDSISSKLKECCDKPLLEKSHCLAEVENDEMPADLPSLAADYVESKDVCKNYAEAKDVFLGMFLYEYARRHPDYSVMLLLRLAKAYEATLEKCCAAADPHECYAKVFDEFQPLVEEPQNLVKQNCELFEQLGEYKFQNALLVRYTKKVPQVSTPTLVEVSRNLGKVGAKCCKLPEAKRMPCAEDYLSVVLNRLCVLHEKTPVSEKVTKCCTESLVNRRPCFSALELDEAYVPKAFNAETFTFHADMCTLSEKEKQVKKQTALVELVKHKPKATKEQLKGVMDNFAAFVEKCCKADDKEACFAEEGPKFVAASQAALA
Method: (§1) In brief, HSA and cynoSA were amine-coupled to a separate CM5 sensor chip at a density of respectively 1800RU and 1900RU. […] The three buffers used contained 50 mM phosphate, 150 mM NaCl and 0.005% surfactant P and were adjusted to either pH5, pH7 or pH8. Samples were injected at a flow-rate of 45 μL/min, association and dissociation were monitored during 120 sec and 300 sec. Binding curves were subsequently used to calculate the KD, association—and dissociation-rate constants with the BiaEvaluation software.

[2] = molecular target: T2, human serum albumin (human, UniProt P02768 25-609); assay: SPR, Biacore 3000, HSA on CM5 chip, pH5 against pH7
T2 construct: also called HSA
Method: as §1

[3] = molecular target: T3, von Willebrand factor (human, UniProt P04275 764-2813); assay: inhibition ELISA: ristocetin-induced binding of plasma vWF to fixed human platelets (glycoprotein Ib), bound vWF detected with anti-VWF-HRP
T3 construct: vWF of the human plasma in which the compounds were diluted; multimeric; also called vWF; VWF

[4] = molecular target: T2, human serum albumin; assay: X-ray co-crystal structure and in silico modelling
Method: The crystal structure was determined as follows: the purified proteins were used in crystallization trials employing both, a standard screen of approximately 1200 different conditions, as well as crystallization conditions identified using literature data. […] These conditions were also refined by systematically varying pH or precipitant concentrations. Crystals were obtained via the method of co-crystallization.
Crystals have been flash-frozen and measured at a temperature of 100K. The X-ray diffraction have been collected at the SWISS LIGHT SOURCE (SLS, Villigen, Switzerland) using cryogenic conditions. Data were processed using the programs XDS and XSCALE. The phase information necessary to determine and analyze the structure was obtained by molecular replacement. Subsequent model building and refinement was performed with the software packages CCP4 and COOT. The peptide parameterization was carried out with the program [sequence].

fold decrease of affinity at pH5 [1] [fold]	fold decrease of affinity at pH5 [2] [fold]	IC50 (read off the curve) [3] [nM]	binding result [4]	Binder
~10	~10	~10	–	B1
–	–	–	binds	B2
